Where a chain is given by its changes, count along the chain named. Bounds are passed on as bounds.

Here are results for 9 molecules from US20230122364A1 (VANDERBILT UNIVERSITY, published 2023).

To fix the notation:
B1: COV2-2103 (antibody, V domains shown)
VH: EVQLVESGGGLVQPGGSLRLSCAASGFTFSRHWMTWVRQAPGKGLEWVANIKQDGSEKYYVDSVKGRLTISRDNAKNSLYLQMNSLRAEDTAVYYCARLGFYYGGADYWGQGTLVTVSS
VL: NFMLTQPHSVSESPGKTVTISCTGSSGSIASNYVQWYQQRPGSAPTTVISEDNQRPSGVPDRFSGSIDSSSNSASLTISGLKTEDEADYYCQSYDGINRAWVFGGGTKLTVL
B2: COV2-2113 (antibody, V domains shown)
VH: EVQLVESGGGLIQPGGSLRLSCAASEVTVSSNYMSWVRQAPGKGLEWVSLIYSGGTTYYADSVKGRFTISRDNSKNTLYLQMNSLRAEDTAVYYCARDFLRWHDLWGQGTLVTVSS
VL: DIQMTQSPSSLSASVGDRVTITCQASQDINNYLNWYQQKPGKAPKLLIYDASNLETGVPLRFSGSGSGTDFIFTISSLQPEDIATYYCQQYDNLPPVFGGGTKVEIK
B3: COV2-2132 (antibody, V domains shown)
VH: B2 VH
VL: B2 VL with I72T
B4: COV2-2050 (antibody, V domains shown)
VH: QVQLVQSGAEVKKPGASVKVSCKASGYTFTDYYMHWVRQAPGQGLEWMGWINPNSRGTNYAQKFQGRVTMTRDTSISTVYMELSRLTSDDTAVYYCARVVVLGYGRPNNYYDGRNVWDYWGQGTLVTVSS
VL: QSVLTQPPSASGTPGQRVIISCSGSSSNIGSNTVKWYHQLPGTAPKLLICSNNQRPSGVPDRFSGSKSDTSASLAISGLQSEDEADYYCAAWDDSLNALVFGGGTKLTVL
B5: COV2-2068 (antibody, V domains shown)
VH: EVQLVESGGGLVQPGGSLRLSCAASGFTVSSNYMSWVRQAPGKGLEWVSVIYPGGSAFYADSVKGRFTISRHNSNNTLCLQMNSLRTEDTAVYYCARSYDILTGYRDAFDIWGQGTMVTVSS
VL: QSVLTQPPSVSGAPGQRVTISCTGSSSNIGSGSDVHWYQQLPGTAPKLLIYGNTNRPSGVPDRFSGSKSGTSASLAITGLQAEDEADYYCQSYDSRLSGFVVFGGGTKLTVL
B6: COV2-2098 (antibody, V domains shown)
VH: EVQLLESGGGLIQPGGSLRLSCAASGFTFSNYAMSWVRQAPGKGLEWVSGIISTSGGATYNADSVRGRFTTSRDNSKNILYLQMNSLRGEDTAVYYCVKGLFDWFPLWGQGTMVTVSS
VL: DIVMTQSPATLSVSPGERAILSCRASQSVRSNLAWYQQKPGQAPRLLISGASTRATAIPARFSGSGSGTEFTLTITSLQSEDCAVYYCHQYNNWPQTFGQGTKVEIK
B7: COV2-2046 (antibody, V domains shown)
VH: EVQLVESGGGLVQPGRSLRLSCAASGFTFDDYAMHWVRQAPGKGLEWVSGISWNSGSIAYTDSVKGRFTISRDNAKNSLYLQMNSLRAEDTALYYCAKAHSTGHQYYYGMDVWGQGTTVTVSS
VL: DIQMTQSPSSLSASVGDRVTITCRASQSISSFLNWYQQKPGKAPKLLIYAAFNLQSGVPSRFSGSGSGTDFTLTISSLQSEDFATYYCQQSYNTPYTFGQGTKLEIK
B8: COV2-2961 (antibody, V domains shown)
VH: EVQLVQSGPEVKKPGTSVKVSCKASGFTFMSSAVQWVRQARGQRLEWIGWIVIGSGNTNYAQKFQERVTITRDMSTSTAYMELSSLRSEDTAVYYCAAPYCSSISCNDGFDIWGQGTMVTVSS
VL: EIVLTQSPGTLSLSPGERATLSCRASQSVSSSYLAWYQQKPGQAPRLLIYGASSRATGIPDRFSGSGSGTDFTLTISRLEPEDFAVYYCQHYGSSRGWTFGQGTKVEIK
B9: COV2-2082 (antibody, V domains shown)
VH: EVQLVESGGGVVRPGGSLRLSCAASGFIFDDYDMTWVRQAPGKGLEWVSGISWNGGNTGYADSVKGRFTISRDNAKNSLYLQMNSLRAEDTALYHCAVIMSPIPRYSGYDWAGGAFDIWGQGTMVTVSS
VL: SSELTQDPAVSVALGQTVRITCQGDSLRSYYASWYQQKPGQVPILVIYDKNNRPSGIPDRFSGSSSGNTASLTITGAQAEDEADYYCNSRDSSGNAVVFGGGTKLTVL

In one experiment the target is T1, SARS-CoV-2 spike (S) protein on authentic SARS-CoV-2 virus (strain WA1/2020) (SARS-CoV-2, UniProt P0DTC2 14-1273). Nature of the experiment: cell-based or functional assay.
Take B1: the “SARS-CoV-2 focus reduction test, IC50” value is greater than 1 µg/mL.
Consider B2, for which the “Nano-luciferase virus reduction test, SARS-CoV-2, IC50” value (“Nano-luciferase virus reduction test” below) was less than 0.3 µg/mL and the “SARS-CoV-2 focus reduction test, IC50” value came out at 0.427 µg/mL.
On the same counts, the results for B3 are less than 0.3 µg/mL and 0.673 µg/mL.
On the same counts, the results for B4 are less than 0.05 µg/mL and 0.025 µg/mL.
On the same counts, the results for B5 are less than 0.3 µg/mL and 0.864 µg/mL.
For B6, the “Nano-luciferase virus reduction test” value is less than 0.1 µg/mL and the “SARS-CoV-2 focus reduction test, IC50” value worked out at 0.776 µg/mL.
As for B7, the “Nano-luciferase virus reduction test” value was less than 0.1 µg/mL and the “SARS-CoV-2 focus reduction test, IC50” value was determined as 0.171 µg/mL.
As to B8, the “SARS-CoV-2 focus reduction test, IC50” value was 0.03 µg/mL.
On to B9, for which the “Nano-luciferase virus reduction test” value is less than 0.2 µg/mL and the “SARS-CoV-2 focus reduction test, IC50” value is 0.302 µg/mL.

The target of a further experiment is T2, SRBD subdomain of SARS-CoV-2 S protein (SARS-CoV-2, UniProt P0DTC2 319-541). Nature of the experiment: ELISA, purified IgG.
Take B1: the “OD 450 nm” value turned out to be 4.3 OD 450 nm.
As for B2, the “OD 450 nm” value stood at 4.4 OD 450 nm.
Turning to B4, the “OD 450 nm” value amounted to 4.3 OD 450 nm.
On the same count and under the same terms, with B5 the figure was 4.3 OD 450 nm; with B6, 4.2 OD 450 nm; with B9, 4.3 OD 450 nm.

In a further experiment the target is T3, SARS-CoV-2 NTD (SARS-CoV-2, UniProt P0DTC2 14-305).
T3 construct: domain: NTD
Nature of the experiment: ELISA, purified IgG. In general terms: An ELISA detects its analyte on a solid surface through an enzyme-linked reagent.
For B1, the “OD 450 nm” value is 0.12 OD 450 nm.
Same read-out and setting: for B3 the value was 0.15 OD 450 nm; for B4, 0.12 OD 450 nm.
Still for that read-out and setting: for B5 the value was 0.1 OD 450 nm; for B6, 0.15 OD 450 nm.
The same measure, in the same setting: for B7 the value was 0.09 OD 450 nm; for B9, 0.11 OD 450 nm.

A further experiment concerns the target T2, SRBD subdomain of SARS-CoV-2 S protein. Nature of the experiment: ELISA on coated SRBD.
Broadly, the EC50 is the concentration at which the effect is half-maximal. B1 had an EC50 of 0.0011 µg/mL.
Same read-out and setting: for B2 the value was 0.0006 µg/mL; for B4, 0.0016 µg/mL.
On the same count and under the same terms, for B5 the value was 0.0012 µg/mL; for B6, 0.0007 µg/mL; for B9, 0.0006 µg/mL.

A further experiment deals with T1, SARS-CoV-2 spike (S) protein on …. As to the kind of experiment: cell-based or functional assay. This is another data set of the same source.
Consider B1, for which the “Neutralization IC50 (FRNT, authentic SARS-CoV-2 WA1/2020)” value (“Neutralization IC50” for short) is 1.97 µg/mL.
Turning to B2, the “Neutralization IC50” value is 1.04 µg/mL.
Take B4: the “Neutralization IC50” value stood at 0.08 µg/mL.
Still for that read-out and setting: with B5 the figure was 0.478 µg/mL.
The same measure, in the same setting: for B6 the value was 1.03 µg/mL.
On the same count and under the same terms, with B9 the figure was 0.204 µg/mL.
